Data published in PMC9352680, “A comprehensive thermodynamic model for RNA binding by the Saccharomyces cerevisiae Pumilio protein PUF4”.
Substitutions are numbered along the chain they refer to. In names and notes the source's numbering stands.

T1: PUF4 RNA-binding domain (Saccharomyces cerevisiae, UniProt P25339 537-888)
T1 sequence: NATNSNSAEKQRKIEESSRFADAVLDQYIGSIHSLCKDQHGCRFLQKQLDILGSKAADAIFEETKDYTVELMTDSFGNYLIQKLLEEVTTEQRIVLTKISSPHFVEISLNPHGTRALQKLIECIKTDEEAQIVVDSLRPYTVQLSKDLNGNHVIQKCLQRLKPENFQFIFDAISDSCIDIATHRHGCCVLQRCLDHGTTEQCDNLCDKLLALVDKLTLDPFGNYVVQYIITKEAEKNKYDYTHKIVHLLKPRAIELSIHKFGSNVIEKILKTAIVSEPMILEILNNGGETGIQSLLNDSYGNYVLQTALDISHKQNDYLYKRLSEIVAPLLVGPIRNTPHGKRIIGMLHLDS

B1: Ic_S2_P4E.1_K4.1_C4.1_H4.1_A4.1_[T5C]_[A6C]_[T7G]_F4.1_[T8C]_[A9T]_T4.1 (ssRNA)
RNA: UUUGAUUAAUAUGAUAUCGUUCUUUCUUGUACCGCUUUCUUUCUCGAUAUCAUAUUAAUCUUU
B2: Ic_S2_P4E.1_K4.1_C4.1_H4.1_A4.1_[T5C]_[A6T]_[T7C]_F4.1_[T8C]_[A9C]_T4.1 (ssRNA)
RNA: B1 RNA with C33U, G34C, U36C
B3: Ic_S2_P4E.1_K4.1_C4.1_H4.1_A4.1_[T5C]_[A6C]_F4.1_[A9C]_T4.1 (ssRNA)
RNA: B1 RNA with G34U, C35U, U36C
B4: Ic_S2_P4E.1_K4.1_C4.1_H4.1_A4.1_[T5C]_[A6C]_[T7G]_F4.1_[T8A]_[A9C]_T4.1 (ssRNA)
RNA: B1 RNA with C35A, U36C
B5: Ic_S2_P4E.1_K4.1_C4.1_H4.1_A4.1_[T5C]_[A6T]_[T7C]_F4.1_[T8C]_T4.1 (ssRNA)
RNA: B1 RNA with C33U, G34C, U36A
B6: Ic_S2_P4E.1_K4.1_C4.1_H4.1_A4.1_[T5C]_[A6T]_[T7G]_F4.1_[T8C]_T4.1 (ssRNA)
RNA: B1 RNA with C33U, U36A
B7: Ic_S2_P4E.1_K4.1_C4.1_H4.1_A4.1_[T5C]_[A6C]_[T7A]_F4.1_[T8G]_[A9T]_T4.1 (ssRNA)
RNA: B1 RNA with G34A, C35G
B8: Ic_S2_P4E.1_K4.1_C4.1_H4.1_A4.1_[T5C]_[A6T]_[T7G]_F4.1_T4.1 (ssRNA)
RNA: B1 RNA with C33U, C35U, U36A
B9: Ic_S2_P4E.1_K4.1_C4.1_H4.1_A4.1_[T5C]_[A6C]_[T7C]_F4.1_[T8G]_[A9C]_T4.1 (ssRNA)
RNA: B1 RNA with G34C, C35G, U36C
B10: Ic_S2_P4E.1_K4.1_C4.1_H4.1_A4.1_[T5C]_[A6C]_F4.1_[T8C]_[A9T]_T4.1 (ssRNA)
RNA: B1 RNA with G34U
B11: Ic_S2_P4E.1_K4.1_C4.1_H4.1_A4.1_[T5C]_[A6T]_[T7G]_F4.1_[T8C]_[A9T]_T4.1 (ssRNA)
RNA: B1 RNA with C33U
B12: Ic_S2_P4E.1_K4.1_C4.1_H4.1_A4.1_[T5C]_[A6C]_[T7A]_F4.1_[A9G]_T4.1 (ssRNA)
RNA: B1 RNA with G34A, C35U, U36G
B13: Ic_S2_P4E.1_K4.1_C4.1_H4.1_A4.1_[T5C]_[A6C]_[T7A]_F4.1_[A9C]_T4.1 (ssRNA)
RNA: B1 RNA with G34A, C35U, U36C
B14: Ic_S2_P4E.1_K4.1_C4.1_H4.1_A4.1_[T5C]_[A6C]_F4.1_[T8C]_[A9C]_T4.1 (ssRNA)
RNA: B1 RNA with G34U, U36C
B15: Ic_S2_P4E.1_K4.1_C4.1_H4.1_A4.1_[T5C]_[A6T]_[T7A]_F4.1_[T8G]_[A9T]_T4.1 (ssRNA)
RNA: B1 RNA with C33U, G34A, C35G
B16: Ic_S2_P4E.1_K4.1_C4.1_H4.1_A4.1_[T5C]_[A6T]_[T7C]_F4.1_[T8C]_[A9T]_T4.1 (ssRNA)
RNA: B1 RNA with C33U, G34C
B17: Ic_S2_P4E.1_K4.1_C4.1_H4.1_A4.1_[T5C]_[A6T]_[T7G]_F4.1_[T8G]_[A9T]_T4.1 (ssRNA)
RNA: B1 RNA with C33U, C35G
B18: Ic_S2_P4E.1_K4.1_C4.1_H4.1_A4.1_[T5C]_[A6T]_[T7G]_F4.1_[A9T]_T4.1 (ssRNA)
RNA: B1 RNA with C33U, C35U
B19: Ic_S2_P4E.1_K4.1_C4.1_H4.1_A4.1_[T5C]_[A6G]_F4.1_[A9G]_T4.1 (ssRNA)
RNA: B1 RNA with C33G, G34U, C35U, U36G
B20: Ic_S2_P4E.1_K4.1_C4.1_H4.1_A4.1_[T5C]_[A6C]_F4.1_[A9T]_T4.1 (ssRNA)
RNA: B1 RNA with G34U, C35U
B21: Ic_S2_P4E.1_K4.1_C4.1_H4.1_A4.1_[T5C]_[A6G]_[T7C]_F4.1_[A9G]_T4.1 (ssRNA)
RNA: B1 RNA with C33G, G34C, C35U, U36G
B22: Ic_S2_P4E.1_K4.1_C4.1_H4.1_A4.1_[T5C]_[A6C]_F4.1_[T8C]_[A9G]_T4.1 (ssRNA)
RNA: B1 RNA with G34U, U36G
B23: Ic_S2_P4E.1_K4.1_C4.1_H4.1_A4.1_[T5C]_[A6C]_[T7A]_F4.1_[T8A]_[A9C]_T4.1 (ssRNA)
RNA: B1 RNA with G34A, C35A, U36C
B24: Ic_S2_P4E.1_K4.1_C4.1_H4.1_A4.1_[T5C]_[A6G]_[T7A]_F4.1_[T8C]_T4.1 (ssRNA)
RNA: B1 RNA with C33G, G34A, U36A
B25: Ic_S2_P4E.1_K4.1_C4.1_H4.1_A4.1_[T5C]_[A6C]_[T7C]_F4.1_[A9C]_T4.1 (ssRNA)
RNA: B1 RNA with G34C, C35U, U36C

Target: T1, PUF4 RNA-binding domain
Assay: Mg; RNA-MaP; 20 mM Na-HEPES pH 7.4, 30 mM KOAc, 0.75 mM MgCl2, 0.1% Tween-20, 5% glycerol, 0.1 mg/mL BSA, 2 mM DTT; 25 C; 0.0125-409.6 nM protein
Conditions: tags: N-His6-TEV cleaved; C-SNAP kept, Cy3B-labelled; label: tethered on chip by stalled RNA polymerase

Row | Binder | Kd [nM]
1 | B1 | 154
2 | B2 | 242
3 | B3 | 21.5
4 | B4 | 936
5 | B5 | 213
6 | B6 | 753
7 | B7 | 171
8 | B8 | 2.61
9 | B9 | 1580
10 | B10 | 29.7
11 | B11 | 157
12 | B12 | 3.21
13 | B13 | 9.15
14 | B14 | 79.4
15 | B15 | 538
16 | B16 | 103
17 | B17 | 966
18 | B18 | 28.6
19 | B19 | 28.9
20 | B20 | 6.99
21 | B21 | 31.1
22 | B22 | 54.9
23 | B23 | 712
24 | B24 | 407
25 | B25 | 24.5
26 | UCUCUUUGUUUUUAUCUCUU (ssRNA) [Ib_S1_P3E.1_K3.1_C3.1_H3.1_[A4T]_A3.1_[A6T]_F3.1_T3.1] | 1670
27 | UCUCUUUGUCUUUAUCUCUU (ssRNA) [Ib_S1_P3E.1_K3.1_C3.1_H3.1_[A4C]_A3.1_[A6T]_F3.1_T3.1] | > 2300
28 | UCUCUUUGUUUGUAUCUCUU (ssRNA) [Ib_S1_P3E.1_K3.1_C3.1_H3.1_[A4T]_A3.1_[A6G]_F3.1_T3.1] | 133
29 | UCUCUUUGUUUCUAUCUCUU (ssRNA) [Ib_S1_P3E.1_K3.1_C3.1_H3.1_[A4T]_A3.1_[A6C]_F3.1_T3.1] | > 2300
